Test: folding stability dG unfold (combined trypsin and chymotrypsin); higher = more stable
Description: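 Folding stability of de novo designed mini-proteins (<80 aa, no Cys; designed by TrROS, TrMRF, ProteinMPNN and the joint model) was measured by cDNA display proteolysis with trypsin and chymotrypsin. Each protease was used at 11 concentrations in a threefold dilution series plus a no-protease condition. K50 was inferred by Bayesian fitting of sequencing counts, and dG unfold was derived against a sequence-predicted unfolded-state K50 (Tsuboyama et al. method). Sequences shown include variable-length N-terminal GS-type padding (SAGGSAGG...) inside a display construct carrying a PA tag. Rows were kept only if the AF2 dimer inter-PAE was >15, to exclude likely homo-oligomers.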

Row | Sequence | folding stability dG unfold [kcal/mol]
1 | SAGGSAGGSAGGSMVVPASEVEEYVERRKRETGDRFEVTPIPEEGVTPVRLEPADPALESAGGSAGGSAGGS [r4_419_JUSTAS] | < -1
2 | SAKAKVVEIKEENGKVIIKIEVEDENGNKKTIEIELPKDDIEIVEVDEDKIVIYNKKTGKKITLDLKDLSAG [r14_947_TrROS_Hall] | > 6
3 | SMTYTVTKESSVSPLPDGSPVTSTTTTVTAPTEPVTVTTSTSVTPLSTGTSTTTSTTTTTVPPDDPLAASSA [r9_34_JUSTAS] | < -1
4 | SAGGSTYTVTRTEELPDGTVRAELTVTLDGAPVPATGTTETAPGGRRRVTVTFPSDPSLSLTTPEESAGGSA [r2_376_JUSTAS] | < -1
5 | SAGGSAGGSAGKNGQPEKVEPQPKIKIRVEDNGKEFETPEQAEELKDELAKKGYKIKVERSAGGSAGGSAGG [r17_289_TrROS] | < -1
6 | SAGGIMFDSPEEAEELADNGRIKPVNRGKQKHKDNGKEREHEMYMVKIKDPEDNKPVQVMIPADQIRSAGGS [r16_271_TrROS] | < -1
7 | SAGGSAGGMKVTFDDGVEETLNLTEEEAKAWAESRPDRKMTRIEKEPPEKLSPENLTPEAIKLKSAGGSAGG [r6_881_JUSTAS] | < -1
8 | NWVVWAKLTNPEEGERKTYEVPVPPGEEPTEEEILDQAKDMLGRPKEDLRKNVEIEPYPENGWAEIEIRIRS [r1_285_TrROS] | < -1
9 | SAGGMITTEREVEVPPDELDEVIERLKAEVAAQPLEPAEDIKILEIEEKEEKAVIKYKVTAKVEGEKLLSAG [r5_575_JUSTAS] | < -1
10 | SAGGQKITIDNVTPGMIRIRVPNGNEFEFPEIQKELQEHGNNQPPTADQIAEWLRKRNFPIKDIEISDSAGG [r13_610_TrROS] | < -1
11 | SATVTVETTLSDVDTLLAAAEAAGWAVTRTQEPSSPLRRATITAPLPDGTAAPVTVTVDPASGRAVLVGSAG [r14_169_JUSTAS] | < -1
12 | SAGGSAGGSANKDDKKKEQRKQRVESKLPIYDPGNGKPWDIEVTGPVDDPEDAVDWLLDWFSAGGSAGGSAG [r3_271_TrROS] | < -1
13 | SAGGSAGGSAGMTLEELQKEGYKVEVIRYPDSPHWYVEIEYPDPDGKKKERTIPVDDIKPSAGGSAGGSAGG [r17_311_TrROS] | < -1
14 | SAGKPRPIINIEWQPNPDGQPNLTISVMRRDPKNGDMKPREYTIDPGADPEDLIKKALDEGADYVSIHPSAG [r5_37_TrROS] | < -1
15 | SAGGSAGGSAGVIPFDSPEDAERAIEEAFRNGDPVTIHRRNPDGKHQTIPFKIKLPKNDPSAGGSAGGSAGG [r17_462_TrROS] | < -1
16 | SAGGSITISMPWNDPEKAAKALEEAFGVDVPPKVERDPGNGWYTITLPNLGRKIQIDGNKVKIEPPSAGGSA [r2_205_TrROS] | < -1
17 | SAGGKNPEENDPEYQKPPKIPSRTIPFPAEQALAWAKELPGFDNIMVEAGGKWVEIDLDDGKIEPYGSAGGS [r16_214_TrROS] | < -1
18 | SAGGSAGGSAGGSKKKFKVKVIEKKPTTFPDGGVLVDYKVEIPETGALFDLKLTYTGEASAGGSAGGSAGGS [r4_94_TrMRF] | < -1
19 | SAGGSAGGSAGPPERTLSAIIAPNGEILNPIPVPEGAKVTVEPIPETGYYVATVTVPADVSAGGSAGGSAGG [r11_32_TrMRF] | < -1

Row | Sequence | folding stability dG unfold [kcal/mol]
20 | SAGGSAGGSLTIPLPDGGTLTVVEEDEEEVLVEERKPNPGGSSPATFTRTIRRPPPVLPPKLVSAGGSAGGS [r12_959_JUSTAS] | < -1
21 | SAGKIKEIEMDPPHNQMTLELPEKGRKITINPNMGHLDIEPPDGKPREVPVPNPSDMKEAIKKVLKELKSAG [r5_467_TrROS] | < -1
22 | SAMVVPVELEGPVGDLDELKEKTKKEVEEELGLPDDLENITVTVEKIEPLPDPEGKPVTTRIKLKITVKSAG [r14_736_JUSTAS] | < -1
23 | SAGGSAGGSAGMVTTSETITVTVTLPTGPTETITVPVTTTVPVVPVSPEVAAADPAAVAALLSAGGSAGGSA [r18_114_JUSTAS] | < -1
24 | SAGGSAGGSPAFTVPREVKVGDKPVTVEVDGEGRVTIRTPEGGSESEPVGSPGPAPVAFRITLKSAGGSAGG [r6_241_JUSTAS] | < -1
25 | SAGGSAGGSTWEEVKKKAKEAGPELDFEPSPEGEKKFKIVAPKDKPEAVEALAKEYNVELEIESAGGSAGGS [r12_74_TrMRF] | < -1
26 | SAGMPVTTVTLYTTDPATGTPTATPGPISDVLALLKREGLPVEREEYDPSPQTHTVYSKGPGKDYIVAGSAG [r5_521_JUSTAS] | < -1
27 | SAGGSAGGSAVIVIPASVVEEKKEKIELKLEDETEYEVEVTTEKVGDEPIAVLKLIPKNIPSSAGGSAGGSA [r18_447_JUSTAS] | < -1
28 | SAGGMDPAEAREIAKEIMKKFEENGRPYYAKITIRPDPKIQDIDIMPPGEPLEPRADPGQRTIMFRFPSAGG [r13_693_TrROS] | < -1
29 | SAGPFYVRMKIEVPRKTYDPEDGEPKQEKREIDIWFPMKSEEQARDHADKLAEELPPENVKITDIEPFSAGG [r19_209_TrROS] | < -1
30 | SAGGSAGGSGSPSRPSPVLKFTFPKDPKPVTVPIPSGDPAAAAAAAAALEAAHPDTPVAVEAASAGGSAGGS [r12_601_JUSTAS] | < -1
31 | SAGGSAGGSAGKITIKPEGQDGNGMYYEIRLPDNGKTIQVPFPSPEDADRRAKKILKELFSAGGSAGGSAGG [r11_848_TrROS] | < -1
32 | SAGGSAGGSEPVPLKVKARFGDPGEEFEADIDIPKEALEGEALTPEQIKEALEALFPDVEIEGSAGGSAGGS [r20_221_TrMRF] | < -1
33 | SAGGSAGGSAGGGLDDVPEEELRKILEEHGLPPEEVPPDTEVTLELPEGKPIKVRMTGRSAGGSAGGSAGGS [r10_623_JUSTAS] | < -1
34 | SATLRDLIKELGFPMDIEHDGDSVKITMRNPDDPNPGQEQTFEIPPPNGKPLKFKIRMRNNGIQEIEPESAG [r14_401_TrROS] | < -1
35 | SAGGSAPIKITIHWDPENGMYRIKGKTPDGPVEYPFPRDELRNMPIENFADELNYEIKDVEIEPYPSAGGSA [r15_801_TrROS] | < -1
36 | SAGGSAGGSAGGDLEIHIPPGMDPAQADNFAKMFGLKNIKIEPVPPVKPRVYTKNGEPDSAGGSAGGSAGGS [r10_1083_TrROS] | < -1
37 | SAGGSPITPEIAQELAEEFPNWDIHVEPRKPGEEIRFPNGMRIFDDPNGYRVMVHNPNGKPRQLPVSAGGSA [r2_166_TrROS] | < -1
38 | SAGGSAGGSAGGPELGEIEPGPDGYLYVNLKVELPVELPGPDGKGTGPVEGTVRLKVGLSAGGSAGGSAGGS [r10_92_TrMRF] | < -1

Row | Sequence | folding stability dG unfold [kcal/mol]
39 | SAGGSAGGSMEITVTLPPDQTAEDAIAALPSEYKNVTVLETSTTFPPTTDETPTVTLTIKVTKSAGGSAGGS [r12_822_JUSTAS] | < -1
40 | SAGGPGYWRIKIYPKDTGKPHEFPIPLDQIRKVDPKNNKIEISFPNGPTIKIPDPEDIKAVQIEPWPSAGGS [r8_111_TrROS] | < -1
41 | SAGGSGGSTTPTFEEHVITGPLPVEIKVKKTTLNVTGSSAPSTTTTTTFYDPSGKKLSTKTTTTSSSAGGSA [r2_215_JUSTAS] | < -1
42 | SAGGSAGGSAGGSFVPMSQVTKVTPVGDKLVIETPGNPIVFSPEEIPIPEDLPLNFVPRSAGGSAGGSAGGS [r10_665_JUSTAS] | < -1
43 | SAGGASVPVEPRLDASGRERVRATLEIRPTLPNGTRTSRAVPVEFASRAELRAFIAARAPTADAVLLSAGGS [r16_652_JUSTAS] | < -1
44 | SAGGSAGGSAGGPIKVETEPYPDGYHRVEIMLPGNGQKKEIHFPNGQTPEQAKDWIKEWSAGGSAGGSAGGS [r10_825_TrROS] | < -1
45 | SAGGSAGGSAGGSKEITFPAREIAEKLGIPPGRPITPEFLNKIKHVETDENGWVTLKLDSAGGSAGGSAGGS [r4_369_TrROS] | < -1
46 | SAGGSAGGSAGMKIKLPNIPGAEVEIEKDPEVPDLYKIKIKNKETKEEIEITLPKEALKPSAGGSAGGSAGG [r17_341_TrROS_Hall] | < -1
47 | SAGGSAGGSAGMSTTIEITDPNLSKEEIKKRIREELGPDVKVTSITEETPDTLKATIVKKSAGGSAGGSAGG [r11_580_JUSTAS] | < -1
48 | SAELVLASVEKKGDEVIAVTAFPDGLFVKVKTKDGKIFAAPLPAENIGPQVEALKKAFPGVEVEPFLAESAG [r14_528_TrMRF] | < -1
49 | SAGGSPVVPLPPDATATLTETVKVPRVLFDEEGNELEKLEVERTVTTTYTRLPGGEVATTTTTTTESAGGSA [r2_154_JUSTAS] | < -1
50 | SAGGSAGGSAGGVVELPELPPGDDAEVTEVRTPSPGPVELVLRPPHSDETTTRTLSPERLSAGGSAGGSAGG [r7_342_JUSTAS] | < -1
51 | SAGGSAGGSVVIPESVISNMKEEEIRELIKKNPKPVLLVTENPEVRKKAEEIFKKEGYPLVVGSAGGSAGGS [r12_97_TrMRF] | < -1
52 | SAGGSAGGSAGGKRHRIDNIEPFNNDGEKLYRIRMPGGKEQRFPVGEEFTPNGAEIEPLPSAGGSAGGSAGG [r7_931_TrROS] | < -1
53 | SAGGSAGGSAGMIVRPVTVTIIDPTNSTPVKTFEALELPDELVIPEEVAKQFSPENVLVRSAGGSAGGSAGG [r11_725_JUSTAS] | < -1
54 | SAPDLGSGTLLTTESRAVTDPEGNTTWVTRPVVVPVEREYFVTDPETGEWAPLSTYDPATGTLHDPNHHSAG [r14_122_JUSTAS] | < -1
55 | SAGGSAGGSAGPESRTITLEDPGSLEEAIERALATLPPDTTVTVTFGDEPVELNAATLRALSAGGSAGGSAG [r3_50_JUSTAS] | < -1
56 | SAGMTIPVTSPEEARQVAEELAPEVGKEVTIEEAPPSVSTDNLPSNAIVLVNPDSGVRYVATIKEPDHHSAG [r5_173_JUSTAS] | < -1
57 | SAGMMVLVRNKNGETVPLEDMTEEQLKNMDIEEVEILPPPEIKVEEEVKVDENGNLTVKKKIEIKIEFSAGG [r19_232_TrROS_Hall] | < -1

Reference: the supplement of paper PMC12764529
